{
  "source": "paper PMC4436075",
  "about": "(mBio, 2015)",
  "molecular_target": "the molecule itself",
  "assay": "cross-linking",
  "data": [
    {"protein": "Alg44-6His (natural protein, Pseudomonas aeruginosa, UniProt Q9HY69 1-389, looked up) MNTAVNVNVVHESEAQRQFARVKLPARIRYIGANREGVDARLLDLSAGGFAFTASGAPIQPGDLYKGKLLFQVDSISFSLEVEFQVRSVDPASRRVGCEFQNLKPREVAALRYLITSYLAGEVIGVGDMLNTLQRENFTKARKQGGGNGGMGFFGRVRAVTLSTAIFVVGVGAFAFILNQMYNLYFVTHADSGVVSVPNQQITMPREGTVQSLLGPNAEVAKGAPIATFSANLLDMLKGNLTEEQLNPGNIEKLFGHQMKGTLTSPCDCRVVQQLVADGQYANKGQVIFTLAPRDSVASIEARFPYRNAAELAPGTRVNFQVAGDGVNRSGRIVNTAPVDGDLSSEIRVQIQPDQPLDAQYAGRPAEVSIGGLPGRTLLNKAVTLATAR", "values": [
      {"measurement": "stoichiometry N", "result": 2}
    ]}
  ]
}
